In patent US20260193363A1:

Columns and labels:
[1] = target: EGFR overexpressed on cancer cell lines MDA-MB-468 and A431 (human) (UniProt P00533); assay: flow cytometry, antibodies added at 2 µg/ml, A431 cells
[2] = target: wtEGFR at physiological levels on WI-38 cells (human) (UniProt P00533); assay: flow cytometry, antibodies added at 2 µg/ml, WI-38 cells
[3] = target: wild-type EGFR on F98EGFR cells (rat glioma F98 transfected with full-length EGFR) (UniProt P00533); assay: flow cytometry, antibodies added at 2 µg/ml, F98-EGFR cells
[4] = target: EGFR overexpressed on cancer cell lines MDA-MB-468 and A431 (human) (UniProt P00533); assay: flow cytometry, antibodies added at 2 µg/ml, MDA-MB-468 cells
[5] = target: EGFRvIII on F98npEGFRvIII cells (rat glioma F98 transfected with nonphosphorylated EGFRvIII); assay: flow cytometry, antibodies added at 2 µg/ml, F98-npEGFRvIII cells
[6] = target: EGFR and EGFRvIII on GBM39 cells (patient derived xenograft glioblastoma line); assay: flow cytometry on GBM39 cells, antibody at 2 µg/ml
[7] = target: EGFR and EGFRvIII on GBM39 cells (patient derived xenograft glioblastoma line); assay: flow cytometry on GBM39 cells, antibody at 20 µg/ml
[8] = target: wtEGFR at physiological levels on WI-38 cells (human) (UniProt P00533); assay: flow cytometry on WI-38 cells, antibody at 2 µg/ml
[9] = target: EGFR and EGFRvIII on GBM39 cells (patient derived xenograft glioblastoma line); assay: flow cytometry on GBM39 cells, antibody at 0.2 µg/ml
[10] = target: wild-type EGFR on F98EGFR cells (rat glioma F98 transfected with full-length EGFR) (UniProt P00533); assay: flow cytometry on F98EGFR cells, antibody at 2 µg/ml
[11] = target: EGFRvIII on DKMG-EGFRvIII cells (human glioblastoma line DKMG transduced with EGFRvIII); assay: flow cytometry on DKMG-EGFRvIII cells, antibody at 1 µg/ml
[12] = target: EGFRvIII on DKMG-EGFRvIII cells (human glioblastoma line DKMG transduced with EGFRvIII); assay: flow cytometry on DKMG-EGFRvIII cells, antibody at 10 µg/ml
[13] = target: EGFRvIII on DKMG-EGFRvIII cells (human glioblastoma line DKMG transduced with EGFRvIII); assay: flow cytometry on DKMG-EGFRvIII cells, antibody at 0.1 µg/ml

| Median : PE-A [1] | Median : PE-A [2] | Median : PE-A [3] | Median : PE-A [4] | Median : PE-A [5] | median fluorescent intensity [6] | median fluorescent intensity [7] | GeoMean [8] | median fluorescent intensity [9] | GeoMean [10] | median fluorescent intensity [11] | median fluorescent intensity [12] | median fluorescent intensity [13] | Substance |
| --- | --- | --- | --- | --- | --- | --- | --- | --- | --- | --- | --- | --- | --- |
| 34.3 | 48 | 32.6 | 34.9 | 26.2 |  |  |  |  |  |  |  |  | IgG1 Iso Con (antibody) |
| 31.2 | 47.6 | 33.5 | 34.1 | 26.9 |  |  |  |  |  |  |  |  | IgG2 Iso Con (antibody) |
| 10700 | 2720 | 4040 | 6860 | 4470 | 29800 | 30300 | 2450 | 12700 | 3700 | 14300 | 13500 | 12900 | monoclonal antibody ma528 |
